How the values were obtained:
[1] = target: human Neurokinin NK2 receptor (human) (UniProt P21452); assay: radio-ligand competition binding (CEREP), second screen, reference compound; radioligand not named
[2] = target: human Neurokinin NK2 receptor (human) (UniProt P21452); assay: radio-ligand competition binding (CEREP), reference compound, human receptor in recombinant mammalian cells; radioligand not named

human Neurokinin NK2 receptor (human), sequence (P21452 whole entry): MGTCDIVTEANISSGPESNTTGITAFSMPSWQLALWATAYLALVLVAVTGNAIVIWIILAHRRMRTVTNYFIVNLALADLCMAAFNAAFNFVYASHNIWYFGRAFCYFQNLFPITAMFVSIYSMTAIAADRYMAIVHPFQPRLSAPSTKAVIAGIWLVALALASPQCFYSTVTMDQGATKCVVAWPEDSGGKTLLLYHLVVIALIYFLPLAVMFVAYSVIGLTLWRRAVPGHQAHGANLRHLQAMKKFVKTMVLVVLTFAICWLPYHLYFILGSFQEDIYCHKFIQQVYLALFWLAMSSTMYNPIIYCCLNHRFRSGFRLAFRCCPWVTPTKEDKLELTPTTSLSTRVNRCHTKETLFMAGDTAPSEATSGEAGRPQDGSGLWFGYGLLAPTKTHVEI

IC50 [1]: 9.7 nM
IC50 [2]: 9.3 nM
Substance: [Nle10]-NKA(4-10) (from UniProt P20366 101-107) (peptide)

From patent US20100074852A1
